One assay relates to mAb ZTS-361. Briefly: Peptide block of mAb ZTS-361 inhibition of IL-31 mediated STAT3 phosphorylation in feline FCWF-4 macrophages. It counts as cell-based. As to conditions: CRM197 conjugated; co-incubated 1 hour with 0.2 μM mAb ZTS-361, FCWF-4 cells.
In assay [1] the target is feline IL-31. As to the kind of experiment: Affinity of anti-IL-31 antibodies by surface plasmon resonance (Biacore), feline IL-31 surface. It counts as binding. As to conditions: IL-31 conjugated to the surface (FIG. 2). The method, then:
(§1) The affinity with which candidate mAbs bind canine and feline IL-31 was determined using surface plasmon resonance (SPR) on a Biacore system (Biocore Life Sciences (GE Healthcare), Uppsala, Sweden). To avoid affinity differences associated with differential surface preparation that can occur when immobilizing antibodies to surfaces; a strategy was employed where IL-31 was directly conjugated to the surface. Immobilization was obtained by amine coupling 5 μg/mL IL-31 using N-hydroxysuccinimide (NHS)/1-Ethyl-3-(3-dimethylaminopropyl) carbodiimide (EDC) chemistry. Chips were quenched with ethanolamine and the affinity with which all candidate mAbs bound to the immobilized IL-31 was evaluated. All curves were fit to a 1:1 model. Affinity constants (KD) less than 1×10^−11M (1E-11 M) are below the lower limit of quantitation of detection for the instrument. Results for affinity measurements are described herein.
Target sequence in this assay (as listed by the source): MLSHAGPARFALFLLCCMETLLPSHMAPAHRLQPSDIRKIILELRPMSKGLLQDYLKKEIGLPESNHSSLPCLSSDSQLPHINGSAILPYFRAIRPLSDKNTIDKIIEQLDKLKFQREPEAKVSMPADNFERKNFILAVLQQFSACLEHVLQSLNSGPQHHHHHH
A general note: SPR reads the build-up and loss of mass on a sensor chip optically.

The target in assay [2] is canine IL-31. Briefly: Affinity of anti-IL-31 antibodies by surface plasmon resonance (Biacore), canine IL-31 surface. It counts as binding. As to conditions: IL-31 conjugated to the surface (FIG. 2). Here is the method: as §1
In assay [3] the test system is feline IL-31. As to the kind of experiment: Inhibition of feline IL-31 induced pSTAT3 signaling in feline FCWF4 macrophage-like cells. It counts as cell-based. As to conditions: 0.2 μg/mL feline IL-31, pSTAT3, FCWF4 cells (FIG. 3). Here is the method: (§2) To identify candidates with inhibitory activity, antibodies were assessed for their ability to affect IL-31-mediated STAT3 phosphorylation in either a canine or feline cell-based assay. STAT3 phosphorylation was determined in canine DH-82 (ATCC® CRL-10389™) or feline FCWF4 macrophage-like cells (ATCC CRL-2787). DH82 and FCWF4 cells were primed with canine interferon gamma (R&D Systems, Minneapolis, Minn.) at 10 ng/mL for 24 hours or feline interferon gamma (R&D Systems, Minneapolis, Minn.) at 125 ng/mL for 96 hours, respectively, to increase receptor expression. Both cell types were serum starved for 2 hours prior to IL-31 and mAb treatment. Using two independent methods, all candidate mAbs were evaluated for their ability to inhibit either 1 μg/mL canine or 0.2 μg/mL feline IL-31 induced STAT3 phosphorylation. […] To ensure complex formation, a one hour co-incubation of mAb and IL-31 cytokine prior to cell stimulation was completed. IL-31 cell stimulation was carried out for five minutes. STAT3 phosphorylation was measured using AlphaLISA SureFire ULTRA™ technology (Perkin Elmer, Waltham, Mass.). In the case where antibody concentration and purity are unknown, hybridoma supernatants were qualitatively measured for their ability to inhibit STAT3 phosphorylation following a 1 hour co-incubation with […] IL-31. The potency of individual monoclonal antibodies defined by their ability to inhibit IL-31 mediated STAT3 phosphorylation in these assays was considered the key selection criteria for further advancement of select antibodies. The term potency refers to the IC50 value calculated from these assays and is the concentration of the antibody where signaling induced by IL-31 is reduced to one half its maximal value.

The subject of assay [4] is feline IL-31. As to the kind of experiment: Inhibition of feline IL-31 induced pSTAT3 signaling in canine DH-82 cells. It counts as cell-based. As to conditions: feline IL-31, pSTAT3, canine DH82 cells (FIG. 3). The method, then:
as §2
Target sequence in this assay (as listed by the source): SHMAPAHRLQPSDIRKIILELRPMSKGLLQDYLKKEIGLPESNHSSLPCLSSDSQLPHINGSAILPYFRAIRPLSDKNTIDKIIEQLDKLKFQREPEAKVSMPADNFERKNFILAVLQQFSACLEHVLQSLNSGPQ

A further assay concerns wildtype feline IL-31. Briefly: Indirect ELISA, binding to wildtype feline IL-31. The method, then: (§3) Mice and dogs were immunized with recombinant canine IL-31 (SEQ ID No. 155) for the purpose of identifying antibodies. Serum antibody titers from immunized animals were determined using an enzyme linked immunosorbent assay (ELISA). Canine or feline IL-31 (50 ng/well) was immobilized to polystyrene microplates and used as a capture antigen. Serum from immunized animals was diluted in phosphate buffered saline with 0.05% tween-20 (PBST). The presence of anti-IL-31 antibodies was detected with an appropriate secondary HRP labeled antibody. Following addition of a chromogenic substrate (SureBlue Reserve TMB 1-Component Microwell Peroxidase Substrate, KPL, Inc., Gaithersburg, Md.) and a ten minute incubation at room temperature (RT) the reaction was stopped with the addition of […] of 0.1 N HCl. The absorbance of each well was determined at an optical density (OD) of 450 nm. Antibodies were selected for their ability to bind canine and feline IL-31 using an ELISA. In some cases, further characterization was performed at the time of selection using an ELISA with a mutant form of the feline IL-31 protein as a capture antigen. Cells producing antibodies with desired binding and inhibitory properties were chosen for sequence analysis of RNA transcripts representing the variable heavy (VH) and variable light (VL) IgG chains.
(§4) For the indirect ELISA method, antibody binding to wildtype and feline IL-31 15H05 mutant proteins was assessed. […] In comparison, the 11E12 antibody bound to the wild-type feline IL-31 and its binding was not impacted by the mutations in the 15H05 epitope region as evidenced by the data in FIG. 4. To confirm binding, biacore analysis was performed using canine, feline, equine, human, feline 15H05 mutant, and feline 11E12 mutant IL-31 proteins as surfaces and a single test concentration of antibody. Similar to ELISA observations, all antibodies tested bound to wildtype feline IL-31. In agreement with the data described above in this section, mouse antibodies 11 E12 and 15H05 both bound to canine and feline IL-31 surfaces. […] From this group of nine fully canine antibodies, only ZIL1 and ZIL9 cross-reacted with equine IL-31. Of note, antibody 15H05 was the only one of all assayed herein that bound to canine, feline, and equine IL-31 indicating some level of epitope conservation across the three species. In contrast, none of the antibodies described herein bound to human IL-31. Additional biacore surfaces were used to verify ELISA observations showing differential binding of antibodies to wildtype feline IL-31 and two proteins with mutations in the 15H05 (15H05 mutant) or 11 E12 (11E12 mutant) epitopes. […] Differing results can be attributed to differences in the two assay methodologies.
(§5) To determine the impact of mAbs 11E12 and 15H05 ability to bind these mutant forms of feline IL-31, an indirect ELISA was run using the mutants directly coated on to an immunoassay plate. […] The minor attenuation of mAb 15H05s binding to the 11E12 mutant is likely due to translational effects of the mutations from movement of the two front helices effecting the 15H05 binding site. The mutations designed to affect mAb 15H05s binding (mutant 15H05) show a complete loss of mAb 1505s ability to bind this IL-31 mutant by ELISA. Unlike the 11E12 mutant, the changes in the random coil recognized by mAb 15H05 (mutant 15H05) had no impact on mAb 11E12 binding further supporting the distinction between the two epitopes (FIG. 6C).
In general terms: An ELISA detects its analyte on a solid surface through an enzyme-linked reagent.

The test system of assay [5] is feline IL-31 15H05 mutant. As to the kind of experiment: Indirect ELISA, binding to feline IL-31 15H05 mutant. As to conditions: compared with wildtype. Here is the method:
as §3, §4, §5

Assay [6] has as its target T1, canine IL-31 (Canis lupus familiaris, UniProt A0A8I3S3D1).
T1 construct: made in house; host or cells: CHO cells (CHROMOS ACE system)
T1 sequence (A0A8I3S3D1 24-159): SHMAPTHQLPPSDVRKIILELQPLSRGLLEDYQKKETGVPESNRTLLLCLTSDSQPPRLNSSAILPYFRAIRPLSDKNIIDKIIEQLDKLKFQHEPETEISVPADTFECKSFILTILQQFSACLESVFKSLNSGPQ
As to the kind of experiment: Inhibition of canine IL-31 induced pSTAT3 signaling in canine DH-82 and feline FCWF4 cells. As to conditions: canine IL-31; canine and feline cell types, cell type of the values not specified. It counts as cell-based. Here is the method:
as §2

Chain of canine IL-31 (as listed by the source): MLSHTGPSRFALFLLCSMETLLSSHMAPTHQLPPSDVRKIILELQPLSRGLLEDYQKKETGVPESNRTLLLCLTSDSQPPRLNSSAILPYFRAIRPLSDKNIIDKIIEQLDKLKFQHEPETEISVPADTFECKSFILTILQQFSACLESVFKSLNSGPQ
Chain of mAb ZTS-361 (as listed by the source): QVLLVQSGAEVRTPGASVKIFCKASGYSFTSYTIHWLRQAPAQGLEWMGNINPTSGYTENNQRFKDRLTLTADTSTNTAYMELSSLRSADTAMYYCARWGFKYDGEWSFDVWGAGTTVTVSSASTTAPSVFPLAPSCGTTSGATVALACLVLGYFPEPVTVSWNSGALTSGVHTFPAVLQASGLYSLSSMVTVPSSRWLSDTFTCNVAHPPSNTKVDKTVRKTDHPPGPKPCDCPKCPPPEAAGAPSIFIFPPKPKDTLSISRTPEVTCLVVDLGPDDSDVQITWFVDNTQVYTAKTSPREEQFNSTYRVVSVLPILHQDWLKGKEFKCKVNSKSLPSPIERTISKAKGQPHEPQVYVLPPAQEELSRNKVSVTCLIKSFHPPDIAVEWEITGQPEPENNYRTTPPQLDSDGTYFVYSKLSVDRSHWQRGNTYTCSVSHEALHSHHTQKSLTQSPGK
Chain of mAb ZTS-361 (as listed by the source): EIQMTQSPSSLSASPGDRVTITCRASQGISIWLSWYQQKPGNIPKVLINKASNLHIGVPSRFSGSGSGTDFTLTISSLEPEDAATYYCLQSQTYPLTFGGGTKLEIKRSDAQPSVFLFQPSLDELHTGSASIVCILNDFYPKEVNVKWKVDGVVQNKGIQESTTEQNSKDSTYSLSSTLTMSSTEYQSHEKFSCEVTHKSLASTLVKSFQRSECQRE
Chain of feline IL-31 15H05 mutant (as listed by the source, change not shown): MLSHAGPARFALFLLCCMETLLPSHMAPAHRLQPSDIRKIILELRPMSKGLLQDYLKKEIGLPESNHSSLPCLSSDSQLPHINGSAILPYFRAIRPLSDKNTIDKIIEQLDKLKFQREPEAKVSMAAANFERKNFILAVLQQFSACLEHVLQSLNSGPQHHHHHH

As for “ZTS-564: constrained canine IL-31 15H05 mimotope, N-TEISVPADTFERKSFILT-C plus terminal Cysteines, mT2b linker”, the “IC50, conjugated peptide” value with mAb ZTS-361 is “poor potency”.

B1: Feline 11E12 1.2: felinized 11E12, FEL_11E12_VH1 paired with FEL_11E12_VL2 (antibody, V domains shown)
VH: QVLLVQSGAEVKKPGASVKIFCKASGYSFTYYDINWLRQAPEQGLEWMGWIFPGDGGTKYNETFKGRLTLTADTSTNTVYMELSSLRSADTAMYYCARGGTSVIRDAMDYWGQGALVTVSS
VL: EVVLTQSSAFLSRTLKEKATITCRASESVDNYGISFMHWYQQKPNQAPKLLVKRASNLESGAPSRFSGSGSGTDFTLTISSPEPEDAATYYCQQSNKDPLTFGQGT
Turning to B1, the “affinity (KD) to feline IL-31” value at feline IL-31 [1] was “total loss of binding”. In addition, at canine IL-31 [2], the “affinity (KD) to canine IL-31” value was “total loss of binding”. In addition, the “potency (IC50) against feline IL-31 in feline FCWF4 cells” value in the assay on feline IL-31 [3] is on record as “complete loss of cellular potency”. For the same molecule, in the assay on feline IL-31 [4], the “potency (IC50) against feline IL-31 in canine DH82 cells” value (“potency (IC50) … in canine DH82 cells” for short) is reported as “complete loss of cellular potency”.

B2: Feline 11E12 1.1 FW2: Fel_11E12_VH1 paired with Feline 11E12 VL1 carrying mouse FW2 (antibody, V domains shown)
VH: QVLLVQSGAEVKKPGASVKIFCKASGYSFTYYDINWLRQAPEQGLEWMGWIFPGDGGTKYNETFKGRLTLTADTSTNTVYMELSSLRSADTAMYYCARGGTSVIRDAMDYWGQGALVTVSS
VL: EIQMTQSPSSLSASPGDRVTITCRASESVDNYGISFMHWYQQKPGQPPKLLIYRASNLESGVPSRFSGSGSGTDFTLTISSLEPEDAATYYCQQSNKDPLTFGQGT
Regarding B2, the “affinity (KD) to feline IL-31” value on feline IL-31 [1] was “KD equivalent to that of the mouse and chimeric form”. Moreover, the “affinity (KD) to canine IL-31” value on canine IL-31 [2] is listed as “detrimental effect”. For the same molecule, the “potency (IC50) … in canine DH82 cells” value in the assay on feline IL-31 [4] is recorded as “increased potency”.

B3: ZIL154: fully canine anti IL-31 antibody, VH SEQ ID NO: 99, VL SEQ ID NO: 101 (antibody, listed as Canis familiaris, V domains shown)
VH: EVHLVESGGDLVKPWGSLRLSCVASGFTFSDRGMSWVRQSPGKGLQWVAYIRYDGSRTDYADAVEGRFTISRDNAKNTLYLQMNSLRAEDTAVYYCARWDGSSFDYWGQGTLVTVSS
VL: DIVVTQTPLSLSVSPGETASFSCKASQSLLHSDGNTYLDWFRQKPGQSPQRLIYKVSNRDPGVPDRFSGSGSGTDFTLRISGVEADDAGLYYCMQAIHFPLTFGAGTKVELK
Turning to B3, in the assay with wildtype feline IL-31, the “binding to wildtype feline IL-31 (ELISA)” value is given as “capable of binding”. Further, in assay [5], the “binding to feline IL-31 15H05 mutant (ELISA)” value was “binding was impacted”.

B4: 15H05 mouse: canine chimera: mouse 15H05 variable regions on canine IgG constant regions (antibody)
heavy: QVQLQQSAAELARPGASVKMSCKTSGYTFTSYTIHWIKQRPGQGLEWIGNINPTSGYTENNQRFKDKTTLTVDRSSNTAYLQLHSLTSEDSAVYFCARWGFKYDGEWSFDVWGAGTTVTVSSASTTAPSVFPLAPSCGSTSGSTVALACLVSGYFPEPVTVSWNSGSLTSGVHTFPSVLQSSGLYSLSSMVTVPSSRWPSETFTCNVAHPASKTKVDKPVPKRENGRVPRPPDCPKCPAPEMLGGPSVFIFPPKPKDTLLIARTPEVTCVVVDLDPEDPEVQISWFVDGKQMQTAKTQPREEQFNGTYRVVSVLPIGHQDWLKGKQFTCKVNNKALPSPIERTISKARGQAHQPSVYVLPPSREELSKNTVSLTCLIKDFFPPDIDVEWQSNGQQEPESKYRTTPPQLDEDGSYFLYSKLSVDKSRWQRGDTFICAVMHEALHNHYTQESLSHSPGK
light: DIQMNQSPSSLSASLGDTITVTCRASQGISIWLSWYQQKPGNIPKVLINKASNLHIGVPPRFSGSGSGTHFTLTITSLQPEDIATYYCLQSQTYPLTFGGGTKLEINRNDAQPAVYLFQPSPDQLHTGSASVVCLLNSFYPKDINVKWKVDGVIQDTGIQESVTEQDKDSTYSLSSTLTMSSTEYLSHELYSCEITHKSLPSTLIKSFQRSEC
Turning to B4, in the assay on feline IL-31 [4], the “potency (IC50) … in canine DH82 cells” value is 0.71 µg/mL. The “IC50 against canine IL-31” value in the assay with canine IL-31 [6] was 12.49 µg/mL.

B5: ZTS-927: felinized anti IL-31 15H05 mAb, FEL_15H05_VH1 with Feline_HC_AlleleA_wt, FEL-15H05-VL1_FW2 light chain (antibody, V domains shown)
VH: QVLLVQSGAEVRTPGASVKIFCKASGYSFTSYTIHWLRQAPAQGLEWMGNINPTSGYTENNQRFKDRLTLTADTSTNTAYMELSSLRSADTAMYYCARWGFKYDGEWSFDVWGAGTTVTVSS
VL: EIQMTQSPSSLSASPGDRVTITCRASQGISIWLSWYQQKPGNIPKVLINKASNLHIGVPSRFSGSGSGTDFTLTISSLEPEDAATYYCLQSQTYPLTFGGGTKLEIK
modifications: feline constant regions joined; Felinized variable heavy mAb sequence, from Mus musculus and Felis catus; Felinized variable light mAb sequence, from Mus musculus and Felis catus
Regarding B5, the “affinity (KD) to feline IL-31” value on feline IL-31 [1] is “highly consistent with that of the mouse and chimeric form”. Further, the “potency (IC50) against feline IL-31 in feline FCWF4 cells” value in the assay on feline IL-31 [3] is “highly consistent with values derived from the chimeric and mouse form”. Moreover, the “potency (IC50) … in canine DH82 cells” value with feline IL-31 [4] was “highly consistent with values derived from the chimeric and mouse form”. Also, in the assay with canine IL-31 [6], the “IC50 against canine IL-31” value is recorded as “proportionally higher”.

These data come from patent US11433139B2, “Peptide vaccines against interleukin-31” (Zoetis Services LLC, priority 2018, dated 2022).
